Reference: paper PMC6220978, “Induced conformational changes activate the peptidoglycan synthase PBP1B” (Molecular Microbiology, 2018)
Positions count from the first letter of the chain named.

Assays:
Assay in all cases: SPR; PBP1B versions immobilised to the chip surface; CpoB versions injected from either 3.9 nM to 2 μM or from 78 nM to 40 μM; apparent KD by non-linear regression, at least three independent experiments
Settings in all cases: both partners purified
[1] = target: T1, PBP1B (wild type, PBP1B^46-844) (E. coli, UniProt P02919 46-844)
T1 construct: PBP1B, E. coli, residues 46-844, encoded on pDML924; Immobilised on the SPR chip as in Egan et al. 2014 / Gray et al. 2015; also called WT PBP1B; WT; source: E. coli BL21(DE3), purified (membrane extract, HisTrap, thrombin, HiTrap SP ion exchange)
T1 sequence (looked up): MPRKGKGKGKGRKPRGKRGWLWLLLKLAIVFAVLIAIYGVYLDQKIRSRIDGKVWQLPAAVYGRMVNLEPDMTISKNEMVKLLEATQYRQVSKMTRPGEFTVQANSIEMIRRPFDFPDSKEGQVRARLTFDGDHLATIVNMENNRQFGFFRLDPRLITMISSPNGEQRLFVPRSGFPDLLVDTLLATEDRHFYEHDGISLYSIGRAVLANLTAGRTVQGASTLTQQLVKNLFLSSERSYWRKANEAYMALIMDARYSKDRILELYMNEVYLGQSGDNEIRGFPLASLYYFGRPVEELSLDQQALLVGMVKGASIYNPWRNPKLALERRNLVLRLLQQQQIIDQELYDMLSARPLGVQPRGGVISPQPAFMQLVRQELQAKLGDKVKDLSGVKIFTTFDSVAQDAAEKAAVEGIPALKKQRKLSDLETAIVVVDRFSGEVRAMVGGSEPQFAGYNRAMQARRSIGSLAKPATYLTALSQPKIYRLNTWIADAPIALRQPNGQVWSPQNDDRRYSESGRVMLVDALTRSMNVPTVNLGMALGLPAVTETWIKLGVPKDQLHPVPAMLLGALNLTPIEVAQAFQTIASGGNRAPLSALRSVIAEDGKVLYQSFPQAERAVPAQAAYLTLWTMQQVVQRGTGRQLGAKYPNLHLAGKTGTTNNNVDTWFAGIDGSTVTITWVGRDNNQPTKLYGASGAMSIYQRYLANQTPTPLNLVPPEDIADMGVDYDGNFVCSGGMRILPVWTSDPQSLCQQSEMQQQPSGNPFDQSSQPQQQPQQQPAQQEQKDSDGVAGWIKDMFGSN

PBP1B I202F = target: T2, PBP1B I202F (E. coli, UniProt P02919 46-844, I202F)
T2 construct: PBP1B, E. coli, residues 46-844, made by mutagenesis of pDML924; Substitution first found in the suppressor screen of Markovski et al. 2016 (LpoB bypass); source: E. coli BL21(DE3), purified (membrane extract, HisTrap, thrombin, HiTrap SP ion exchange)
T2 sequence (looked up): T1 sequence (looked up) with I157F

PBP1B D443A = target: T3, PBP1B D443A (E. coli, UniProt P02919 46-844, D443A)
T3 construct: PBP1B, E. coli, residues 46-844, made by mutagenesis of pDML924; source: E. coli BL21(DE3), purified (membrane extract, HisTrap, thrombin, HiTrap SP ion exchange)
T3 sequence (looked up): T1 sequence (looked up) with D398A

Kd [1]: 94 nM | Kd (PBP1B I202F): > 2000 nM | Kd (PBP1B D443A): 95 nM
B1: CpoB (full length) (natural protein, E. coli, UniProt P45955 27-263, looked up)
chain: QAPISSVGSGSVEDRVTQLERISNAHSQLLTQLQQQLSDNQSDIDSLRGQIQENQYQLNQVVERQKQILLQIDSLSSGGAAAQSTSGDQSGAAASTTPTADAGTANAGAPVKSGNANTDYNAAIALVQDKSRQDDAMVAFQNFIKNYPDSTYLPNANYWLGQLNYNKGKKDDAAYYFASVVKNYPKSPKAADAMFKVGVIMQDKGDTAKAKAVYQQVISKYPGTDGAKQAQKRLNAM
notes: CpoB, E. coli; The coiled-coil construct begins at residue 27, so the purified 'full length' protein may lack the signal peptide (surmise); source: E. coli BL21(DE3), purified (HisTrap, Superdex 200), as in Gray et al. 2015
